Experimental data reported in the supplement of paper PMC7877785.
± gives the uncertainty stated by the source.

Assay: self-splicing fitness, log relative to wild type (ln ratio); higher = more splicing; Tetrahymena group I intron in knt gene, E. coli kanamycin selection, DiMSum; sequences stand for … in CUCUCU…GGAGGGAAAAGUUAUCAGGCAUGCACCUGGUAGCUAGUCUUUAAACCAAUAGAUUGCAUCGGUUUAAAAGGCAAGACCGUCAAAUUGCGGGAAAGGGGUCAACAGCCGUUCAGUACCAAGUCUCAGGGGAAACUUUGAGAUGGCCUUGCAAAGGGUAUGGUAAUAAGCUGACGGACAUGGUCCUAACCACGCAGCCAAGUCCUAAGUCAACAGAUCUUCUGUUGAUAUGGAUGCAGUUCACAGACUAAAUGUCGGUCGGGGAAGAUGUAUUCUUCUCAUAAGAUAUAGUCGGACCUCUCCUUAAUGGGAGCUAGCGGAUGAAGUGAUGCAACACUGGAGCCGCUGGGAACUAAUUUGUAUGCGAAAGUAUAUUGAUUAGUUUUGGAGUACUCGUGGUCG
Method in brief: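 DiMSum derived fitness as the error-weighted combination of fold changes across replicates, kanamycin versus no kanamycin, normalised to wild type. E. coli BL21(DE3) held the library, which randomised all eight P1ex-region intron nucleotides within the knt kanamycin-resistance gene on pET-22b(+). Six replicate transformations grew overnight at 37°C or 30°C on LB agar with or without 25 μg/mL kanamycin, also containing 100 μg/mL carbenicillin, 50 μM IPTG and 0.2% rhamnose, and pooled colonies were amplicon-sequenced on an Illumina HiSeq 2500.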

UGUCAGCAAUAUUACGUAUC
self-splicing fitness (ln) (30 °C): -2.16 ± 0.2 | self-splicing fitness (ln) (37 °C): -1.68 ± 0.29

ACCGAGCAAUAUUACGUGGA
self-splicing fitness (ln) (30 °C): -2.84 ± 0.15 | self-splicing fitness (ln) (37 °C): -2.99 ± 0.18

CUCAAGCAAUAUUACGUAUA
self-splicing fitness (ln) (30 °C): -3.98 ± 0.19 | self-splicing fitness (ln) (37 °C): -2.59 ± 0.16

UCAAAGCAAUAUUACGAAAA
self-splicing fitness (ln) (37 °C): -2.95 ± 0.27

GGCUAGCAAUAUUACGCGGA
self-splicing fitness (ln) (30 °C): -0.936 ± 0.22 | self-splicing fitness (ln) (37 °C): -0.393 ± 0.22

AAUAAGCAAUAUUACGGGUA
self-splicing fitness (ln) (30 °C): -2.49 ± 0.21 | self-splicing fitness (ln) (37 °C): -1.32 ± 0.14

CUGUAGCAAUAUUACGGCUC
self-splicing fitness (ln) (30 °C): -2.55 ± 0.19 | self-splicing fitness (ln) (37 °C): -2.13 ± 0.29

GGGCAGCAAUAUUACGCGGA
self-splicing fitness (ln) (30 °C): -1.23 ± 0.15 | self-splicing fitness (ln) (37 °C): -0.758 ± 0.1

GAAUAGCAAUAUUACGGUUA
self-splicing fitness (ln) (30 °C): -0.656 ± 0.11 | self-splicing fitness (ln) (37 °C): -0.631 ± 0.091

AUACAGCAAUAUUACGCCUG
self-splicing fitness (ln) (30 °C): -1.94 ± 0.12 | self-splicing fitness (ln) (37 °C): 0.29 ± 0.13

UAACAGCAAUAUUACGCGAG
self-splicing fitness (ln) (30 °C): -0.783 ± 0.052 | self-splicing fitness (ln) (37 °C): -0.508 ± 0.066

UCUGAGCAAUAUUACGAGGA
self-splicing fitness (ln) (30 °C): -3.8 ± 0.4 | self-splicing fitness (ln) (37 °C): -3.29 ± 0.42

CAAGAGCAAUAUUACGAAUC
self-splicing fitness (ln) (30 °C): -3.46 ± 0.41 | self-splicing fitness (ln) (37 °C): -1.26 ± 0.38

CAGGAGCAAUAUUACGCAUG
self-splicing fitness (ln) (30 °C): -3.78 ± 0.28 | self-splicing fitness (ln) (37 °C): -1.89 ± 0.2

GAGCAGCAAUAUUACGAUAG
self-splicing fitness (ln) (30 °C): -3.7 ± 0.29 | self-splicing fitness (ln) (37 °C): -3.14 ± 0.24

GUACAGCAAUAUUACGAAGU
self-splicing fitness (ln) (30 °C): -3.32 ± 0.17 | self-splicing fitness (ln) (37 °C): -1.67 ± 0.18

AUCCAGCAAUAUUACGCUCG
self-splicing fitness (ln) (30 °C): -1.75 ± 0.26 | self-splicing fitness (ln) (37 °C): -0.356 ± 0.22

CCACAGCAAUAUUACGUGGA
self-splicing fitness (ln) (30 °C): -3.7 ± 0.16 | self-splicing fitness (ln) (37 °C): -3.16 ± 0.16

UUAAAGCAAUAUUACGAGGU
self-splicing fitness (ln) (30 °C): -4.09 ± 0.24 | self-splicing fitness (ln) (37 °C): -3.3 ± 0.27

ACCAAGCAAUAUUACGCUUA
self-splicing fitness (ln) (30 °C): -1.86 ± 0.11 | self-splicing fitness (ln) (37 °C): -1.08 ± 0.11

GUCAAGCAAUAUUACGCACC
self-splicing fitness (ln) (37 °C): -0.99 ± 0.47

GUUGAGCAAUAUUACGGCUC
self-splicing fitness (ln) (30 °C): -2.04 ± 0.31 | self-splicing fitness (ln) (37 °C): -1.38 ± 0.31

GUGCAGCAAUAUUACGUACC
self-splicing fitness (ln) (37 °C): -2.41 ± 0.32

UUGGAGCAAUAUUACGUGGG
self-splicing fitness (ln) (30 °C): -2.17 ± 0.33

GCUGAGCAAUAUUACGGGUC
self-splicing fitness (ln) (30 °C): -4.37 ± 0.46 | self-splicing fitness (ln) (37 °C): -1.36 ± 0.24

GAUAAGCAAUAUUACGUGUU
self-splicing fitness (ln) (30 °C): -2.67 ± 0.17 | self-splicing fitness (ln) (37 °C): -2.18 ± 0.14

CUCGAGCAAUAUUACGUGCG
self-splicing fitness (ln) (30 °C): -3.08 ± 0.2 | self-splicing fitness (ln) (37 °C): -2.91 ± 0.17

AUGAAGCAAUAUUACGAUGA
self-splicing fitness (ln) (30 °C): -0.515 ± 0.07 | self-splicing fitness (ln) (37 °C): 0.274 ± 0.089

UACAAGCAAUAUUACGUUUA
self-splicing fitness (ln) (30 °C): -1.33 ± 0.07 | self-splicing fitness (ln) (37 °C): -0.605 ± 0.072

AGCUAGCAAUAUUACGCCAA
self-splicing fitness (ln) (30 °C): -1.7 ± 0.27 | self-splicing fitness (ln) (37 °C): -1.75 ± 0.2

UCCCAGCAAUAUUACGCACC
self-splicing fitness (ln) (37 °C): -1.21 ± 0.35

GUUAAGCAAUAUUACGCCGA
self-splicing fitness (ln) (30 °C): -1.83 ± 0.19 | self-splicing fitness (ln) (37 °C): -0.947 ± 0.18

UAAUAGCAAUAUUACGUUCA
self-splicing fitness (ln) (30 °C): -0.833 ± 0.098 | self-splicing fitness (ln) (37 °C): -0.14 ± 0.1

CUGCAGCAAUAUUACGACGG
self-splicing fitness (ln) (30 °C): -2.75 ± 0.17 | self-splicing fitness (ln) (37 °C): -0.0134 ± 0.14

CGUUAGCAAUAUUACGUCUG
self-splicing fitness (ln) (30 °C): -0.914 ± 0.11 | self-splicing fitness (ln) (37 °C): 0.164 ± 0.13

AUCCAGCAAUAUUACGGCGG
self-splicing fitness (ln) (30 °C): -1.04 ± 0.09 | self-splicing fitness (ln) (37 °C): -0.327 ± 0.11

ACAAAGCAAUAUUACGUAUA
self-splicing fitness (ln) (30 °C): -2.79 ± 0.2 | self-splicing fitness (ln) (37 °C): -2.09 ± 0.22

UCACAGCAAUAUUACGAGCA
self-splicing fitness (ln) (30 °C): -1.28 ± 0.081 | self-splicing fitness (ln) (37 °C): 0.102 ± 0.089

GAUAAGCAAUAUUACGUAUG
self-splicing fitness (ln) (30 °C): -1.53 ± 0.11 | self-splicing fitness (ln) (37 °C): -1.37 ± 0.1
